This note sets out measurements from article PMC3235114, “Characterization of the Partitioning System of Myxococcus Plasmid pMF1”.

The target of data set [1] is T1, ParC (ORF21, pMF1.21 product) (Myxococcus fulvus 124B02 plasmid pMF1, UniProt B0YR30 1-87).
T1 sequence: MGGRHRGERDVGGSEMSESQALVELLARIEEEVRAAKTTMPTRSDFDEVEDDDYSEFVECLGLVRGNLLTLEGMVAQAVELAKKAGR
The data set is described as follows: EMSA; data not shown; EMSA: 12 mM HEPES, 4 mM Tris-HCl pH 8.0, 60 mM KCl, 5 mM MgCl2, 0.1 mM EDTA, 1 ug poly(dI-dC), 2% glycerol, 12 pmol probe, 30 min 30 C; footprint: HEMG (50 mM EDTA as printed, 50 mM KCl, 12.5 mM HEPES pH 7.6, 6 mM MgCl2, 5% glycerol), 20 mM HEPES pH 7.6, 5 ug poly(dI-dC), 30 min 30 C. The conditions noted are these: protein: recombinant, tags: His6 (pET-15b), label: 3' biotin. In general terms: A gel shift assay detects complexes by their altered migration in electrophoresis.

The target in data set [2] is T2, ParB (ORF23, pMF1.23 product), His-tag free (Myxococcus fulvus 124B02 plasmid pMF1, UniProt B0YR32 12-86).
T2 sequence: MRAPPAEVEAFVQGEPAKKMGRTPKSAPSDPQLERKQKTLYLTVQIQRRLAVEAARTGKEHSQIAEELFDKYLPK
Nature of the data set: EMSA; similar affinity to His-tagged protein; EMSA: 12 mM HEPES, 4 mM Tris-HCl pH 8.0, 60 mM KCl, 5 mM MgCl2, 0.1 mM EDTA, 1 ug poly(dI-dC), 2% glycerol, 12 pmol probe, 30 min 30 C; footprint: HEMG (50 mM EDTA as printed, 50 mM KCl, 12.5 mM HEPES pH 7.6, 6 mM MgCl2, 5% glycerol), 20 mM HEPES pH 7.6, 5 ug poly(dI-dC), 30 min 30 C. The following applies: protein: recombinant; tags: none; label: 3' biotin; blunt.

The target in data set [3] is T3, ParB (ORF23, pMF1.23 product), His-tagged (Myxococcus fulvus 124B02 plasmid pMF1, UniProt B0YR32 12-86).
T3 sequence: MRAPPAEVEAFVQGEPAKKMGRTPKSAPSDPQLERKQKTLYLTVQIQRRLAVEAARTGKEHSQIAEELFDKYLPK
The data set is described as follows: EMSA; poly(dI-dC), 5 mM MgCl2; unlabeled ItA competes; EMSA: 12 mM HEPES, 4 mM Tris-HCl pH 8.0, 60 mM KCl, 5 mM MgCl2, 0.1 mM EDTA, 1 ug poly(dI-dC), 2% glycerol, 12 pmol probe, 30 min 30 C; footprint: HEMG (50 mM EDTA as printed, 50 mM KCl, 12.5 mM HEPES pH 7.6, 6 mM MgCl2, 5% glycerol), 20 mM HEPES pH 7.6, 5 ug poly(dI-dC), 30 min 30 C. The conditions noted are these: protein: recombinant; tags: N-terminal His6 (pET-15b); label: 3' biotin; blunt.

In data set [4] the target is T3, ParB (ORF23, pMF1.23 product), …. The data set is described as follows: EMSA; EMSA: 12 mM HEPES, 4 mM Tris-HCl pH 8.0, 60 mM KCl, 5 mM MgCl2, 0.1 mM EDTA, 1 ug poly(dI-dC), 2% glycerol, 12 pmol probe, 30 min 30 C; footprint: HEMG (50 mM EDTA as printed, 50 mM KCl, 12.5 mM HEPES pH 7.6, 6 mM MgCl2, 5% glycerol), 20 mM HEPES pH 7.6, 5 ug poly(dI-dC), 30 min 30 C. The following applies: protein: recombinant; tags: N-terminal His6 (pET-15b); label: 3' biotin; blunt.

Data set [5] shares this target. The data set is described as follows: EMSA; up to 1000 ng protein; EMSA: 12 mM HEPES, 4 mM Tris-HCl pH 8.0, 60 mM KCl, 5 mM MgCl2, 0.1 mM EDTA, 1 ug poly(dI-dC), 2% glycerol, 12 pmol probe, 30 min 30 C; footprint: HEMG (50 mM EDTA as printed, 50 mM KCl, 12.5 mM HEPES pH 7.6, 6 mM MgCl2, 5% glycerol), 20 mM HEPES pH 7.6, 5 ug poly(dI-dC), 30 min 30 C. The following applies: protein: recombinant; tags: N-terminal His6 (pET-15b); label: 3' biotin.

Data set [6] has the same target. The data set is described as follows: EMSA; unlabeled ItB competes; EMSA: 12 mM HEPES, 4 mM Tris-HCl pH 8.0, 60 mM KCl, 5 mM MgCl2, 0.1 mM EDTA, 1 ug poly(dI-dC), 2% glycerol, 12 pmol probe, 30 min 30 C; footprint: HEMG (50 mM EDTA as printed, 50 mM KCl, 12.5 mM HEPES pH 7.6, 6 mM MgCl2, 5% glycerol), 20 mM HEPES pH 7.6, 5 ug poly(dI-dC), 30 min 30 C. The conditions noted are these: protein: recombinant; tags: N-terminal His6 (pET-15b); label: 3' biotin; blunt.

B1: ItA (dsDNA)
DNA 1: GGAAGTCTGGAAGTCTAGATGTCTAGATGTTTGAATGTTTGGAGTGGG
DNA 2: CCCACTCCAAACATTCAAACATCTAGACATCTAGACTTCCAGACTTCC
Consider B1, for which the binding result in data set [1] (blunt) is reported as “no binding”; in data set [2], “binds”; in data set [3] it was “binds”.

B2: ItE (dsDNA)
DNA 1: AAGTGTCTAGATGTCTAGATGTCT
DNA 2: AGACATCTAGACATCTAGACACTT
As to B2, in data set [4], the binding result was “binds”.

B3: ItD (dsDNA)
DNA 1: AGAAGTCCAGACATCTGGACATTCAGAAGTCTAGACATCTGGATGTCCAGATGGGG
DNA 2: CCCCATCTGGACATCCAGATGTCTAGACTTCTGAATGTCCAGATGTCTGGACTTCT
In the case of B3, the binding result in data set [4] is “binds”.

B4: ItC (dsDNA)
DNA 1: AGACATCTGGAAGTCTGGATGTC
DNA 2: GACATCCAGACTTCCAGATGTCT
Take B4: the binding result in data set [4] was “binds”.

B5: non-iteron fragment (dsDNA)
DNA 1: CGGGCGTCACAGGGGGGAACGCGATGTTGGAGGGTCGGAAATGAGCGAGTCG
DNA 2: CGACTCGCTCATTTCCGACCCTCCAACATCGCGTTCCCCCCTGTGACGCCCG
On to B5, for which the binding result in data set [1] and in data set [5] was “no binding” throughout.

B6: ItF (dsDNA)
DNA 1: AGAGGTCTAGGTGTCTGGAAGTCTGGAGGTCTGGATGTC
DNA 2: GACATCCAGACCTCCAGACTTCCAGACACCTAGACCTCT
Take B6: in data set [4], the binding result is recorded as “binds”.

B7: ItB (dsDNA)
DNA 1: GTGATGTCTAGAGGTCTGGATGTCTAGATGTCTAGATGTCT
DNA 2: AGACATCTAGACATCTAGACATCCAGACCTCTAGACATCAC
As for B7, the binding result in data set [6] is on record as “binds”.
